{
  "source": "patent US11896644B2",
  "about": "“Inhibition of beta-arrestin oligomerization in tauopathy” (UNIVERSITY OF SOUTH FLORIDA, priority 2020, dated 2024)",
  "molecules": {"B1": {"name": "β-arrestin2 ΔIP6N: β-arrestin2 N-terminal domain mutant (K158A, K161A, and R162A), incapable of forming oligomers; dominant negative (protein, UniProt P32121 1-409, looked up, variant K158A K161A R162A)", "Beta-arrestin-2": "MGEKPGTRVFKKSSPNCKLTVYLGKRDFVDHLDKVDPVDGVVLVDPDYLKDRKVFVTLTCAFRYGREDLDVLGLSFRKDLFIATYQAFPPVPNPPRPPTRLQDRLLRKLGQHAHPFFFTIPQNLPCSVTLQPGPEDTGKACGVDFEIRAFCAKSLEEASHAANSVRLVIRKVQFAPEKPGPQPSAETTRHFLMSDRSLHLEASLDKELYYHGEPLNVNVHVTNNSTKTVKKIKVSVRQYADICLFSTAQYKCPVAQLEQDDQVSPSSTFCKVYTITPLLSDNREKRGLALDGKLKHEDTNLASSTIVKEGANKEVLGILVSYRVKVKLVVSRGGDVSVELPFVLMHPKPHDHIPLPRPQSAAPETDVPVDTNLIEFDTNYATDDDIVFEDFARLRLKGMKDDDYDDQLC", "modifications": "GFP or YFP tag", "notes": "dominant negative"}},
  "key": {"[1]": {"tested_on": "tau turnover in Hela-V5-tau cells", "test": "Cycloheximide chase of tau turnover in Hela-V5-tau cells", "assay_type": "cell-based", "details": "cycloheximide 100 μg/ml", "description": "FIGS. 4A to 4E show β-arrestin2 oligomerization is required for suppressing tau turnover. […] Data are shown as box plots or mean±SEM.\nWhen DIV 18 tau P301S cortical primary neurons were transduced with either β-arrestin2 ΔIP6C or ΔIP6N lentivirus, an approximately 50% reduction in tau compared to control was evident (FIGS. 4A,4B), which represents a key finding relevant to both mechanism of action and potential therapeutic strategies. […] Also investigated was whether β-arrestin2 oligomerization is required for slowing tau turnover by disrupting oligomerization using these mutants in several models. […] To determine whether β-arrestin2 oligomerization status alters tau aggregation itself, filter-trap assays were performed from Hela-V5-tau cells transfected with β-arrestin2 variants, in which tau aggregates from detergent-soluble and-insoluble lysates were captured by cellulose acetate membranes and assessed by immunoblotting."}, "[2]": {"molecular_target": "T1, p62 (Homo sapiens, UniProt Q13501)", "T1 construct": "endogenous in cells; host or cells: Hela-V5-tau cells", "test": "Interaction of β-arrestin2 variants with p62 (flag/p62 PLA)", "assay_type": "cell-based", "details": "Hela-V5-tau cells", "description": "FIGS. 12A to 12E show β-arrestin2 interacts with p62, and β-arrestin2 oligomerization inhibits p62 self-interaction. FIG. 12A contains representative confocal images of mCherry and EGFP in Hela-V5-tau cells transfected with mCherry-GFP-p62 together with control vector, β-arrestin2-flag, or β-arrestin2 ΔIP6N-flag (Scale bar=10 μm). […] The box and whisker plots show all data points, and the box plots show all data points, the median and IQR, and the minimal and maximal values. FIG. 12C contains representative immunoblots of indicated proteins from Hela-V5-tau cells transfected GFP or GFP-β-arrestin2 with/without HA-p62. Note that β-arrestin2 is present in HA immune complexes only in the presence of HA-p62, whereas β-arrestin2 is not detected in control IgG beads. […] Lysates were subjected to IP for HA. […] FIG. 12F show quantification of flag/p62 PLA puncta/cell (N=4 independent experiments, #P<0.0001).\nGiven the effects on p62 autophagy flux, whether β-arrestin2 physically interacts with p62 was tested. […] Given that β-arrestin2 oligomeric mutants, ΔIP6C and ΔIP6N, reduced tau aggregates by slowing tau turnover, next tested was whether β-arrestin2 ΔIP6C and ΔIP6N mutants affect p62 self-association by a proximity ligation assays (PLA) as well as co-IP. […]"}, "[3]": {"tested_on": "tauopathy in tau P301S mice", "test": "rAAV9 stereotaxic injection into hippocampus of 5-month old tau P301S mice", "assay_type": "in vivo", "protocol": "Cells were fixed with 4% paraformaldehyde for 15 min at room temperature and washed with 0.2% triton in TBS and blocked using 3% BSA with 0.1% triton x-100 for 1 hr, incubated with primary antibodies for overnight at 4° C. and fluorescently labeled secondary antibodies for 45 min at room temperature. For immunohistochemistry, mice were perfused with PBS and fixed with 4% paraformaldehyde. 25-micron sections were blocked using normal goat serum for 1 h and incubated with primary antibodies at 4° C. overnight, followed by secondary antibody incubation for 1 h at room temperature prior to mounting. Images were captured with the Olympus FV10i confocal microscope (Tokyo, Japan), and the immunoreactivities were quantified using the Image J software (National Institutes of Health, Bethesda, MD). Immunoreactivities were quantitated from every 12th serial section through an entire hippocampus. In ICC and IHC experiments, all comparison images were acquired with identical laser intensity, exposure time, and filter. Adjustments to the brightness/contrast were applied equally to all comparison images. Regions of interest were chosen randomly, and investigators were blinded to experimental conditions during image acquisition and quantification.\nBrain homogenates and cultured cells were lysed with RIPA buffer (50 mM Tris pH 7.4, 150 mM NaCl, 2 mM ethlenediaminetetraacetic acid, 1% NP-40, 0.1% sodium dodecyl sulfate) plus protease and phosphatase inhibitors. Proteins were extracted and centrifuged at 15000 rpm for 15 min at 4° C., and RIPA insoluble fractions were lysed with 5% SDS with 1% β-mercaptoethanol, 50 mM Tris-HCl pH 6.8, 12.5 mM EDTA, 10% glycerol, and 0.02% bromophenol blue. Supernatants were used for western blot analysis. supernatants were used for western blot analysis. co-IP experiments were carried out from NP40 lysates or indicated buffers with preclearing with IgG beads followed by IP with IgG beads alone or IgG beads+indicated antibodies, extensive washing (5×) with the original buffer, and Western blotting on SDS-PAGE. […]"}},
  "data": [
    {"molecule": "B1", "values": [
      {"measurement": "tau turnover in cycloheximide chase", "setting": "[1]", "result": "enhancement of tau turnover"},
      {"measurement": "interaction with p62 compared to β-arrestin2", "setting": "[2]", "result": "much less interaction with p62"},
      {"measurement": "tau levels in individual brain cells with verified expression", "setting": "[3]; cells verified by GFP tags", "result": "essentially undetectable"},
      {"measurement": "HT7-immunoreactive tau", "setting": "[3]; expressing neurons vs GFP-expressing control or non-infected neurons", "result": "significant reductions"},
      {"measurement": "sarkosyl-insoluble tau", "setting": "[3]; tau P301S mice, two months post injection, vs GFP control", "result": "markedly reduced"}
    ]}
  ]
}
